In publication PMC8960412:
Values belong to the substance of their own block, whether it stands above or below them.

Tests used:
[1] = biological target: anti-huPD-1-huGITR-L bispecific (Anti-PD-1-GITR-L-hIgG1-LALA) (human) (UniProt Q9UNG2); experiment: SPR; bispecific captured as in the human SPR, recombinant human or cynomolgus GITR-His as analyte; cross-species experiment (Supplementary Table 11)
[2] = biological target: anti-huPD-1-huGITR-L bispecific (Anti-PD-1-GITR-L-hIgG1-LALA) (human) (UniProt Q9UNG2); experiment: SPR; as for human FcRn/β2m: samples immobilised, cyno FcRn/β2m as analyte; pH 6.0
[3] = biological target: isotype-hIgG1-LALA (human); experiment: as above
[4] = biological target: isotype/huGITR-L-hIgG1-LALA (human); experiment: as above
[5] = biological target: anti-PD-1-hIgG1-LALA (human); experiment: as above
[6] = biological target: human GITR on transfected HEK293 cells (human) (UniProt Q9Y5U5); experiment: flow cytometry on cells; human GITR-HEK293 cells incubated with a serial dilution of antibodies; detected with PE goat anti-human IgG F(ab')2
[7] = biological target: anti-huPD-1-huGITR-L bispecific (Anti-PD-1-GITR-L-hIgG1-LALA) (human) (UniProt Q9UNG2); experiment: SPR; Biacore T200; samples directly immobilised by amine coupling, human FcRn/β2m as analyte; running buffer pH 6.0
[8] = biological target: isotype-hIgG1-LALA (human); experiment: as above
[9] = biological target: isotype/huGITR-L-hIgG1-LALA (human); experiment: as above
[10] = biological target: anti-PD-1-hIgG1-LALA (human); experiment: as above
[11] = biological target: anti-huPD-1-huGITR-L bispecific (Anti-PD-1-GITR-L-hIgG1-LALA) (human) (UniProt Q9UNG2); experiment: SPR; Biacore T200; antibody constructs captured by goat anti-human H+L on a CM5 chip, recombinant human GITR-His as analyte; global 1:1 fit (Supplementary Table 3)
[12] = biological target: isotype/huGITR-L-hIgG1-LALA (human); experiment: as above

anti-PD-1-hIgG1-LALA (human), sequence (heavy, as listed by the source, chain 1 of 2): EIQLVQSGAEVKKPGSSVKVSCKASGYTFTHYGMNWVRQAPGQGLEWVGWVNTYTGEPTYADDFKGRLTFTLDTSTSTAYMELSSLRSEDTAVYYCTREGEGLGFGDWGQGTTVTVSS
anti-PD-1-hIgG1-LALA (human), sequence (light, as listed by the source, chain 2 of 2): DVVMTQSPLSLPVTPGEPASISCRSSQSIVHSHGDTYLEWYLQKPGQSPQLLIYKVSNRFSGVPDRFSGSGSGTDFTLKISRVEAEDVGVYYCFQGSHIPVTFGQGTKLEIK

Substance: isotype/huGITR-L-hIgG1-LALA
EC50 [6]: 0.0009 µM

Substance: Hu GITR-His (recombinant extracellular domain of human GITR) (from UniProt Q9Y5U5 26-162) (domain or fragment)
Kd [11]: 0.016 µM
koff [11]: 0.0017 s⁻¹
kon [11]: 110000 M⁻¹ s⁻¹
Kd [12]: 0.015 µM
koff [12]: 0.0016 s⁻¹
kon [12]: 110000 M⁻¹ s⁻¹
Kd [1]: 0.0018 µM
koff [1]: 0.001 s⁻¹
kon [1]: 560000 M⁻¹ s⁻¹

Next, values leading:

Kd [1]: 0.00079 µM
koff [1]: 0.00087 s⁻¹
kon [1]: 1.1e+06 M⁻¹ s⁻¹
Substance: Cyno GITR-His (recombinant extracellular domain of cynomolgus GITR) (domain or fragment)

Kd [2]: 2 µM
Kd [3]: 1.7 µM
Kd [4]: 2.2 µM
Kd [5]: 1.9 µM
Substance: cyno FcRn/β2m heterodimer (from UniProt Q8SPV9 24-365; Q8SPW0 21-119) (complex)

Kd [7]: 2.3 µM
Kd [8]: 2 µM
Kd [9]: 2.4 µM
Kd [10]: 2.2 µM
Substance: human FcRn/β2m heterodimer (from UniProt P55899 24-297; P61769 21-119) (complex)
